# Laboratory results published in US20240279310A1.
# Read-outs that look alike come from different tables or passages of the source.
# Legend:
# [1] = biological target: recombinant human APRIL (Tonbo Biosciences) (human) (UniProt O75888); assay: cell-based or functional assay
# [2] = biological target: recombinant human BAFF (BioLegend) (human) (UniProt Q9Y275); assay: cell-based or functional assay
# [3] = biological target: recombinant human APRIL (Tonbo Biosciences) (human) (UniProt O75888); assay: cell-based or functional assay; design: IC50 APRIL (Δ TACI 30-110-Fc) / IC50 BAFF (Δ TACI 30-110-Fc): unit not given beside the values
# [4] = biological target: recombinant human BAFF (BioLegend) (human) (UniProt Q9Y275); assay: cell-based or functional assay; design: IC50 APRIL (Δ TACI 30-110-Fc) / IC50 BAFF (Δ TACI 30-110-Fc): unit not given beside the values
# [5] = biological target: recombinant human APRIL (Tonbo Biosciences) (human) (UniProt O75888); assay: cell-based or functional assay; design: IC50 APRIL (Δ TACI 30-110) / IC50 BAFF (Δ TACI 30-110): unit not given beside the values
# [6] = biological target: recombinant human BAFF (BioLegend) (human) (UniProt Q9Y275); assay: cell-based or functional assay; design: IC50 APRIL (Δ TACI 30-110) / IC50 BAFF (Δ TACI 30-110): unit not given beside the values
# [7] = biological target: APRIL+BAFF (15 nM APRIL+10 nM BAFF) in combination; assay: cell-based or functional assay
# [8] = biological target: recombinant human BAFF (BioLegend) (human) (UniProt Q9Y275)
# Chain of TACI 30-110-Fc (WT TACI 30-110, SEQ ID NO:130, fused to the Fc of SEQ ID NO: 73) (Fc fusion) (chain): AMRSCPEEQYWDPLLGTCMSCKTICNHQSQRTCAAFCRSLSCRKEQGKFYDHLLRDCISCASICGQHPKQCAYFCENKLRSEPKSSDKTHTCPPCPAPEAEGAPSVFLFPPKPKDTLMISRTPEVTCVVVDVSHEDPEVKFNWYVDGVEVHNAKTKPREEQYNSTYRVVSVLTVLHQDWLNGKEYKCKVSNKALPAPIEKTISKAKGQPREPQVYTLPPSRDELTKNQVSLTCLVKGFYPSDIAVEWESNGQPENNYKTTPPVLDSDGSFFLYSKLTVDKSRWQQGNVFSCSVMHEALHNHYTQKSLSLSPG
# Chain of TACI 13-118-Fc (WT TACI 13-118, SEQ ID NO:131, fused to the Fc of SEQ ID NO: 73) (Fc fusion) (chain): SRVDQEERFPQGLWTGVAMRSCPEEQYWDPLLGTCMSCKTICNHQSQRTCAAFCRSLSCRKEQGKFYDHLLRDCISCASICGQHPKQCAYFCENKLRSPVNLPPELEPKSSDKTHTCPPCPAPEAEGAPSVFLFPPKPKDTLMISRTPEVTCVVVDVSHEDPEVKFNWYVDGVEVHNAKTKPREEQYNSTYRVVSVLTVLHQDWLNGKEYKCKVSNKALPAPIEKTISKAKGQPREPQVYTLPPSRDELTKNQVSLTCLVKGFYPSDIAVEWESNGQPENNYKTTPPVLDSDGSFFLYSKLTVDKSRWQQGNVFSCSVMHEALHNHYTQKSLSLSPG
# Chain of recombinant human APRIL (Tonbo Biosciences) (human) (O75888 105-250 limits assumed): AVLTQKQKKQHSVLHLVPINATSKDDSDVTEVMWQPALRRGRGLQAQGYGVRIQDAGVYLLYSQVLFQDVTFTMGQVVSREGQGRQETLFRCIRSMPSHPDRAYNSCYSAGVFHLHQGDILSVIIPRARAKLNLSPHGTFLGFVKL
# Chain of Telitacicept/Tai'ai (RemeGen) (Fc fusion) (chain): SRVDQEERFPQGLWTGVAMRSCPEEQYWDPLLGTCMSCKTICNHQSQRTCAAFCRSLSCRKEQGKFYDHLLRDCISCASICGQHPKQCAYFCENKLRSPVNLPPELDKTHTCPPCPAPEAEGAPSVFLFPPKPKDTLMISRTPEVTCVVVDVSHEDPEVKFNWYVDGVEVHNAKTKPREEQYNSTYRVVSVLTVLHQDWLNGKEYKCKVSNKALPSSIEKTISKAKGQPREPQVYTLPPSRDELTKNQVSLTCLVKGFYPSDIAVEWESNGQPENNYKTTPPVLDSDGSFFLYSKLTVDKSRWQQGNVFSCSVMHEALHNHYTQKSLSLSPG
APRIL IC50 (pM) [1],APRIL IC50 (Δ WT) [1],BAFF IC50 (pM) [2],BAFF IC50 (Δ WT) [2],Substance,also measured
8490 pM,0.69,1960 pM,1.06,"TACI vTD-Fc with the vTD of SEQ ID NO: 186 (F78Y, Y102D) (Fc fusion)",–
13400 pM,1.09,1790 pM,0.97,"TACI vTD-Fc with the vTD of SEQ ID NO: 179 (Q75E, F78Y) (Fc fusion)",–
33600 pM,2.72,1950 pM,1.05,"TACI vTD-Fc with the vTD of SEQ ID NO: 189 (A101D, Y102D) (Fc fusion)",–
4260 pM,0.35,2260 pM,1.22,"TACI vTD-Fc with the vTD of SEQ ID NO: 24 (K77E, R84Q) (Fc fusion)",–
2910 pM,0.24,1180 pM,0.64,"29 TACI CRD2-Fc (TACI vTD SEQ ID NO:29, K77E/A101D/Y102D) (Fc fusion)",IC50 (nM) APRIL [3]: 339 nM; IC50 APRIL (Δ TACI 30-110-Fc) [3]: 0.09; IC50 (nM) BAFF [4]: 1340 nM; IC50 BAFF (Δ TACI 30-110-Fc) [4]: 0.23
–,–,–,–,"TACI 30-110-Fc (WT TACI 30-110, SEQ ID NO:130, fused to the Fc of SEQ ID NO: 73) (Fc fusion)",IC50 (nM) APRIL [5]: 4320 nM; IC50 APRIL (Δ TACI 30-110) [5]: 1; IC50 (nM) BAFF [6]: 4490 nM; IC50 BAFF (Δ TACI 30-110) [6]: 1; IC50 (nM) APRIL [3]: 3850 nM; IC50 APRIL (Δ TACI 30-110-Fc) [3]: 1; IC50 (nM) BAFF [4]: 5770 nM; IC50 BAFF (Δ TACI 30-110-Fc) [4]: 1
10100 pM,0.82,2210 pM,1.19,"TACI vTD-Fc with the vTD of SEQ ID NO: 182 (K77E, F78Y, R84Q) (Fc fusion)",–
159 pM,0.01,1540 pM,0.83,TACI vTD-Fc with the vTD of SEQ ID NO: 32 (K77E) (Fc fusion),–
8380 pM,0.68,1830 pM,0.99,TACI vTD-Fc with the vTD of SEQ ID NO: 23 (A101D) (Fc fusion),–
12300 pM,1,1860 pM,1.01,"TACI vTD-Fc with the vTD of SEQ ID NO: 188 (R84Q, Y102D) (Fc fusion)",–
–,–,7900 pM,4.26,"TACI 13-118-Fc (WT TACI 13-118, SEQ ID NO:131, fused to the Fc of SEQ ID NO: 73) (Fc fusion)",IC50 (nM) APRIL [5]: 7810 nM; IC50 APRIL (Δ TACI 30-110) [5]: 1.81; IC50 (nM) BAFF [6]: 8450 nM; IC50 BAFF (Δ TACI 30-110) [6]: 1.88; IC50 (nM) APRIL [3]: 9100 nM; IC50 APRIL (Δ TACI 30-110-Fc) [3]: 2.37; IC50 (nM) BAFF [4]: 7700 nM; IC50 BAFF (Δ TACI 30-110-Fc) [4]: 1.33
11800 pM,0.96,1460 pM,0.79,"27 TACI CRD2-Fc (TACI vTD SEQ ID NO:27, Q75E/R84Q) (Fc fusion)",IC50 (nM) APRIL [3]: 262 nM; IC50 APRIL (Δ TACI 30-110-Fc) [3]: 0.07; IC50 (nM) BAFF [4]: 1390 nM; IC50 BAFF (Δ TACI 30-110-Fc) [4]: 0.24
10100 pM,0.82,1970 pM,1.06,"TACI vTD-Fc with the vTD of SEQ ID NO: 191 (K77E, F78Y) (Fc fusion)",–
–,–,–,–,Telitacicept/Tai'ai (RemeGen) (Fc fusion),IC50 (pM) BAFF + APRIL [7]: 16800 pM
20000 pM,1.62,2360 pM,1.27,"TACI vTD-Fc with the vTD of SEQ ID NO: 180 (Q75E, A101D) (Fc fusion)",–
2020 pM,0.16,1850 pM,1,"TACI vTD-Fc with the vTD of SEQ ID NO: 185 (F78Y, A101D) (Fc fusion)",–
566 pM,0.05,5490 pM,2.96,TACI vTD-Fc with the vTD of SEQ ID NO: 30 (R84Q) (Fc fusion),IC50 (read off the curve) [8]: 0.001 µM
11100 pM,0.9,2150 pM,1.16,"TACI vTD-Fc with the vTD of SEQ ID NO: 181 (Q75E, Y102D) (Fc fusion)",–
891 pM,0.07,2180 pM,1.17,"TACI vTD-Fc with the vTD of SEQ ID NO: 192 (K77E, Y102D) (Fc fusion)",–
2620 pM,0.21,2260 pM,1.22,"TACI vTD-Fc with the vTD of SEQ ID NO: 184 (F78Y, R84Q) (Fc fusion)",–
176 pM,0.01,1640 pM,0.88,TACI vTD-Fc with the vTD of SEQ ID NO: 183 (F78Y) (Fc fusion),–
–,–,53200 pM,28.7,BAFF-R ECD (control) (receptor),–
11200 pM,0.91,2350 pM,1.27,"TACI vTD-Fc with the vTD of SEQ ID NO: 187 (R84Q, A101D) (Fc fusion)",–
13200 pM,1.07,1990 pM,1.07,"TACI 13-118, with K77E/F78Y/Y102D, fused to the Fc of SEQ ID NO:73 (Fc fusion)",IC50 (nM) APRIL [5]: 848 nM; IC50 APRIL (Δ TACI 30-110) [5]: 0.2; IC50 (nM) BAFF [6]: 2050 nM; IC50 BAFF (Δ TACI 30-110) [6]: 0.46
11600 pM,0.94,1860 pM,1,TACI vTD-Fc with the vTD of SEQ ID NO: 190 (Y102D) (Fc fusion),–
2040 pM,0.17,1960 pM,1.06,"TACI vTD-Fc with the vTD of SEQ ID NO: 25 (K77E, A101D) (Fc fusion)",–
1940 pM,0.16,1460 pM,0.79,TACI vTD-Fc with the vTD of SEQ ID NO: 177 (Q75E) (Fc fusion),–
10700 pM,0.87,1890 pM,1.02,"TACI vTD-Fc with the vTD of SEQ ID NO: 178 (Q75E, K77E) (Fc fusion)",–
